# Reference: paper PMC9695642, “Conservation of Importin α Function in Apicomplexans: Ivermectin and GW5074 Target Plasmodium falciparum Importin α and Inhibit Parasite Growth in Culture” (International Journal of Molecular Sciences, 2022)
# B1: Plasmodium falciparum importin α, biotinylated GST fusion protein (natural protein)
# chain: MDRRIEARRKEFKKNCDDTRRKREDLVVQIRKQQRECQLESKRAMVMANIGFEENNTYNLNYAKGNQNDSTNDSIYNTSSNNSSNTLEMLKKIPTLAIGVRSNEYVTQLNSTRELRKLLSIEKGPPIQEVINSGVVPYIVEFLKYDDKTDLQFEAAWVITNIASGSQEQTKVVIDNNAVPHLVRLLSSEKEDVCEQAVWALGNIAGDSAECREYVLNQNSLPLLLKILRTSHKRTLIRNAAWTLSNLCRGKPAPKFEIVSKALPTLAALIYNDDEEILTDACWTLSYLSDGSNENINSVLDAGVAERVVELLSHCSFLVQTPALRTVGNIVTGDDLQTDVVVKLGAVQKLSCLLNSSKKSIKKEACWALSNITAGNISQIQAVIDNNVIPQLINILMKEDFEVRKEAAWAISNASSGGSELQIEYLVECGAIHSLSNLLDVEDANIISVTLEGLENILEMGENKKLRDNLPTNPYVHLFEECDSVHKIDALQDRKVDNICNKAWKILYKYFPFVINNELNNAQIPLNNVFANTEDAVLNKDFTFD
# modifications: biotin (Sulfo-NHS-Biotin reagent)
# Legend:
# [1] = molecular target: His-tagged GCN5-NLS-GFP (NLS of T. gondii histone acetyltransferase GCN5 fused to GFP) (Toxoplasma gondii); assay: AlphaScreen or HTRF; biotinylated IMPαs titrated against His-tagged NLS-GFPs (30 nM); apparent dissociation constant
# [2] = molecular target: His-tagged TGS1-NLS-GFP (NLS of P. falciparum trimethylguanosine synthase fused to GFP) (Plasmodium falciparum); assay: as above
binder,measurement,setting,value
B1,Kd,[1],2.5 nM
same,Kd,[2],6.6 nM
